Source: patent US20230190880A1, “Formulations of Human Parathyroid Hormone (PTH) and Methods for Producing Same” (Sichuan Luzhou Buchang BIO-Pharmaceutical Co., Ltd., priority 2020, published 2023)

Test: Screening of pH and buffers: stability of liquid huPTH formulations by SEC-, RP- and CEX-HPLC
Assay type: physicochemical
Details: accelerated stability at 25° C. and 37° C.; pH 4.0-9.0 buffers, 140 mM NaCl, 1 mg/mL huPTH
Procedure: Recombinant huPTH (1 mg/mL) having the amino acid sequence set forth in SEQ ID NO: 2 was used as an active ingredient in the formulations. Table 1 provides a summary of the formulations that were tested in this example.
The results of SEC-HPLC, RP-HPLC and CEX-HPLC performed at 25° C. and 37° C. are depicted in FIGS. 4-6. The results of SEC-HPLC and RP-HPLC performed at 4° C. are depicted in FIGS. 7-8.

CC[C@H](C)[C@H](NC(=O)[C@H](CCC(=O)O)NC(=O)[C@H](CO)NC(=O)[C@@H](NC(=O)[C@@H](N)CO)C(C)C)C(=O)N[C@@H](CCC(N)=O)C(=O)N[C@@H](CC(C)C)C(=O)N[C@@H](CCSC)C(=O)N[C@@H](Cc1cnc[nH]1)C(=O)N[C@@H](CC(N)=O)C(=O)N[C@@H](CC(C)C)C(=O)NCC(=O)N[C@@H](CCCCN)C(=O)N[C@@H](Cc1cnc[nH]1)C(=O)N[C@@H](CC(C)C)C(=O)N[C@@H](CC(N)=O)C(=O)N[C@@H](CO)C(=O)N[C@@H](CCSC)C(=O)N[C@@H](CCC(=O)O)C(=O)N[C@@H](CCCN=C(N)N)C(=O)N[C@H](C(=O)N[C@@H](CCC(=O)O)C(=O)N[C@@H](Cc1c[nH]c2ccccc12)C(=O)N[C@@H](CC(C)C)C(=O)N[C@@H](CCCN=C(N)N)C(=O)N[C@@H](CCCCN)C(=O)N[C@@H](CCCCN)C(=O)N[C@@H](CC(C)C)C(=O)N[C@@H](CCC(N)=O)C(=O)N[C@@H](CC(=O)O)C(=O)N[C@H](C(=O)N[C@@H](Cc1cnc[nH]1)C(=O)N[C@@H](CC(N)=O)C(=O)N[C@@H](Cc1ccccc1)C(=O)O)C(C)C)C(C)C [huPTH]
stability profile as a function of pH: best stability profile at pH 5
